Consider four molecules from US20220235103A1.

Substitutions are numbered along the chain they refer to.

To fix the notation:
B1: vS07_29B10 (designed binder)
chain: MRGSHHHHHHGSDLGKKLLQAARAGQLDEVRELLKAGADVNAKDREGITPLHLAAQHGHLEIVEVLLKAGADVNAKDVWGRTPLHLAAWQGHLEIVEVLLKAGADVNAKDLAGATPLHVAALYGHLEIVEVLLKAGADVNAQDKSGKTPADLAARAGHQDIAEVLQKAA
B2: vS07_23E04 (designed binder)
chain: B1 chain with R45Q, L53V, Q56H, H57Q, Q90R, L111H, V119A, Y123S
B3: vS07_12C06 (designed binder)
chain: B1 chain with I48K, L53V, H57E, Q90I, L111V, A112S, V119A, Y123H, K134N
B4: ALE049 (designed binder)
chain: MRGSHHHHHHGSDLGKKLLEAARAGQDDEVRELLKAGADVNAKDYFSHTPLHLAARNGHLKIVEVLLKAGADVNAKDFAGKTPLHLAANEGHLEIVEVLLKAGADVNAQDIFGKTPADIAADAGHEDIAEVLQKAAGSPTPTPTTPTPTPTTPTPTPTGSDLGKKLLEAARAGQDDEVRELLKAGADVNAKDYFSHTPLHLAARNGHLKIVEVLLKAGADVNAKDFAGKTPLHLAANEGHLEIVEVLLKAGADVNAQDIFGKTPADIAADAGHEDIAEVLQKAAGSPTPTPTTPTPTPTTPTPTPTGSDLGKKLLQAARAGQLDEVRELLKAGADVNAKDREGITPLHLAAQHGHLEIVEVLLKAGADVNAKDVWGRTPLHLAAWQGHLEIVEVLLKAGADVNAKDLAGATPLHVAALYGHLEIVEVLLKAGADVNAQDKSGKTPADLAARAGHQDIAEVLQKAAGSPTPTPTTPTPTPTTPTPTPTGSDLGKKLLQAARAGQLDEVRELLKAGADVNAKDREGKTPLHVAAQEGHLEIVEVLLKAGADVNAKDVWGRTPLHLAAWIGHLEIVEVLLKAGADVNAKDVSGATPLHAAALHGHLEIVEVLLNAGADVNAQDKSGKTPADLAARAGHQDIAEVLQKAAGSPTPTPTTPTPTPTTPTPTPTGSDLGKKLLQAARAGQLDEVRELLKAGADVNAKDQEGITPLHVAAHQGHLEIVEVLLKAGADVNAKDVWGRTPLHLAAWRGHLEIVEVLLKAGADVNAKDHAGATPLHAAALSGHLEIVEVLLKAGADVNAQDKSGKTPADLAARAGHQDIAEVLQKAA

The target in the assay is SARS-CoV-2 spike protein variant B.1.1.7 (SARS-CoV-2), P0DTC2. The assay can be described thus: cell-based or functional assay.
For B1, the VSV Pseudotype Neutralization Assay IC50 amounted to 4.6 ng/mL. For the molecule B2, the VSV Pseudotype Neutralization Assay IC50 came out at 11.7 ng/mL.

B3 gave a VSV Pseudotype Neutralization Assay IC50 of 5.4 ng/mL. To B4 belongs 1.7 ng/mL.
